From patent US5248605

Test system: HpaII restriction endonuclease (R.HpaII) (Haemophilus parainfluenzae ATCC 49669)
Assay: cleavage_in_vitro
Details: IPTG-induced E. coli extract; 1x REact 8 buffer, 30 min 37 C; HpaII digest pattern on agarose gel

Substance: phage lambda DNA
- activity (units per g wet cells): > 50000
